Results reported in patent US20120171195A1.

Legend:
[1] = target: HLA-A*2403 (A24) (human); assay: Luminex single-antigen beads; rank of MEM-E/02 reactivity among HLA-Ia alleles
[2] = target: HLA-A*2501 (A25) (human); assay: as above
[3] = target: HLA-A*2601 (A26) (human); assay: as above
[4] = target: HLA-A*2901 (A29) (human) (UniProt P04439); assay: as above
[5] = target: HLA-A*3201 (A32) (human); assay: as above
[6] = target: HLA-B*0801 (B8) (human) (UniProt P01889); assay: as above
[7] = target: HLA-B*1401 (B64) (human) (UniProt P01889); assay: as above
[8] = target: HLA-B*1513 (B77) (human); assay: as above
[9] = target: HLA-B*1516 (B63) (human); assay: as above
[10] = target: HLA-B*1801 (B18) (human); assay: as above
[11] = target: HLA-B*2708 (B27) (human) (UniProt P01889); assay: as above
[12] = target: HLA-B*3801 (B38) (human); assay: as above
[13] = target: HLA-B*4403 (B44) (human); assay: as above
[14] = target: HLA-B*5001 (B50) (human); assay: as above
[15] = target: HLA-B*5901 (B59) (human); assay: as above
[16] = target: HLA-Cw*0401 (Cw4) (human); assay: as above
[17] = target: HLA-Cw*0801 (Cw8) (human) (UniProt P10321); assay: as above
[18] = target: HLA-Cw*1203 (Cw12) (human) (UniProt P10321); assay: as above
[19] = target: HLA-Cw*1502 (Cw15) (human); assay: as above
[20] = target: HLA-Cw*1701 (Cw17) (human); assay: as above
[21] = target: HLA-B*3701 (human); assay: Luminex beads; MAb 1/800; PBS only
[22] = target: HLA-B*4403 (human); assay: Luminex beads; MAb 1/800; PBS only
[23] = target: HLA-Cw*1802 (human) (UniProt P10321); assay: Luminex beads; MAb 1/800; PBS only
[24] = target: HLA-B*0801 (human) (UniProt P01889); assay: Luminex beads; MAb 1/100; competitor rHLA-E
[25] = target: HLA-B*1401 (human) (UniProt P01889); assay: Luminex beads; MAb 1/100; competitor rHLA-E
[26] = target: HLA-B*1511 (human) (UniProt P01889); assay: Luminex beads; MAb 1/100; competitor rHLA-E
[27] = target: HLA-B*1513 (human); assay: Luminex beads; MAb 1/100; competitor rHLA-E
[28] = target: HLA-B*2708 (human) (UniProt P01889); assay: Luminex beads; MAb 1/100; competitor rHLA-E
[29] = target: HLA-B*3701 (human); assay: Luminex beads; MAb 1/100; competitor rHLA-E
[30] = target: HLA-B*4001 (human) (UniProt P01889); assay: Luminex beads; MAb 1/100; competitor rHLA-E
[31] = target: HLA-B*4403 (human); assay: Luminex beads; MAb 1/100; competitor rHLA-E
[32] = target: HLA-B*4501 (human); assay: Luminex beads; MAb 1/100; competitor rHLA-E
[33] = target: HLA-B*4801 (human) (UniProt P01889); assay: Luminex beads; MAb 1/100; competitor rHLA-E
[34] = target: HLA-Cw*0202 (human); assay: Luminex beads; MAb 1/100; competitor rHLA-E
[35] = target: HLA-Cw*0303 (human); assay: Luminex beads; MAb 1/100; competitor rHLA-E
[36] = target: HLA-Cw*0304 (human); assay: Luminex beads; MAb 1/100; competitor rHLA-E
[37] = target: HLA-Cw*0501 (human); assay: Luminex beads; MAb 1/100; competitor rHLA-E
[38] = target: HLA-Cw*0602 (human) (UniProt P10321); assay: Luminex beads; MAb 1/100; competitor rHLA-E
[39] = target: HLA-Cw*0702 (human) (UniProt P10321); assay: Luminex beads; MAb 1/100; competitor rHLA-E
[40] = target: HLA-Cw*1402 (human) (UniProt P10321); assay: Luminex beads; MAb 1/100; competitor rHLA-E
[41] = target: HLA-Cw*1502 (human); assay: Luminex beads; MAb 1/100; competitor rHLA-E
[42] = target: HLA-Cw*1701 (human); assay: Luminex beads; MAb 1/100; competitor rHLA-E

Substance: murine monoclonal antibody MAb MEM-E/02
- MEM-E/02 Reactivity Rank [1]: 63 rank
- MEM-E/02 Reactivity Rank [2]: > 65 rank
- MEM-E/02 Reactivity Rank [3]: 60 rank
- MEM-E/02 Reactivity Rank [4]: 48 rank
- MEM-E/02 Reactivity Rank [5]: > 65 rank
- MEM-E/02 Reactivity Rank [6]: > 65 rank
- MEM-E/02 Reactivity Rank [7]: 7 rank
- MEM-E/02 Reactivity Rank [8]: 41 rank
- MEM-E/02 Reactivity Rank [9]: 43 rank
- MEM-E/02 Reactivity Rank [10]: 36 rank
- MEM-E/02 Reactivity Rank [11]: > 65 rank
- MEM-E/02 Reactivity Rank [12]: > 65 rank
- MEM-E/02 Reactivity Rank [13]: > 65 rank
- MEM-E/02 Reactivity Rank [14]: > 65 rank
- MEM-E/02 Reactivity Rank [15]: 20 rank
- MEM-E/02 Reactivity Rank [16]: > 65 rank
- MEM-E/02 Reactivity Rank [17]: 8 rank
- MEM-E/02 Reactivity Rank [18]: 36 rank
- MEM-E/02 Reactivity Rank [19]: > 65 rank
- MEM-E/02 Reactivity Rank [20]: 28 rank

Substance: murine monoclonal antibody (MAb) MEM-E/02
- MFI [21]: 993 MFI
- MFI [22]: 983 MFI
- MFI [23]: 4090 MFI
- MFI [24]: 219 MFI
- MFI [25]: 230 MFI
- MFI [26]: 192 MFI
- MFI [27]: 256 MFI
- MFI [28]: 191 MFI
- MFI [29]: 80 MFI
- MFI [30]: 235 MFI
- MFI [31]: 89 MFI
- MFI [32]: 75 MFI
- MFI [33]: 224 MFI
- MFI [34]: 220 MFI
- MFI [35]: 139 MFI
- MFI [36]: 181 MFI
- MFI [37]: 201 MFI
- MFI [38]: 88 MFI
- MFI [39]: 220 MFI
- MFI [40]: 165 MFI
- MFI [41]: 170 MFI
- MFI [42]: 376 MFI
